Source: the supplement of paper PMC12667976
± gives the standard error.

B1: library; numbered along this chain (parent)
chain: MATDAALRRLLRLHRTEIAVAVDSAFPLLHALADHDVVPEDKFQETLHLKEKEGCPQAFHALLSWLLTQDSTAILDFWRVLFKDYNLERYGRLQPILDSFPKDVDLSQPRKGRKPPAVPKALVPPPRLPTKRKASEEARAAAPAALTPRGTASPGSQLKAKPPKKPESSAEQQRLPLGNGIQTMSASVQRAVAMSSGDVPGARGAVEGILIQQVFESGGSKKCIQVGGEFYTPSKFEDSGSGKNKARSSSGPKPLVRAKGAQGAAPGGGEARLGQQGSVPAPLALPSDPQLHQKNEDECAVCRDGGELICCDGCPRAFHLACLSPPLREIPSGTWRCSSCLQATVQEVQPRAEEPRPQEPPVETPLPPGLRSAGEEVRGPPGEPLAGMDTTLVYKHLPAPPSAAPLPGLDSSALHPLLCVGPEGQQNLAPGARCGVCGDGTDVLRCTHCAAAFHWRCHFPAGTSRPGTGLRCRSCSGDVTPAPVEGVLAPSPARLAPGPAKDDTASHEPALHRDDLESLLSEHTFDGILQWAIQSMARPAAPFPS

Variants of: B1
Assay: AIRE transcriptional activation functional score (insulin promoter-GFP; nonsense median 0, synonymous median 1) (normalised score); higher = higher AIRE activity (more reporter activation)
Settings: with insulin promoter-GFP reporter in HEK293
In short: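 Flp-In T-REx HEK293 landing-pad cells carrying an insulin core promoter-GFP reporter received codon-optimized AIRE NNN-codon libraries (three regions) through Bxb1 recombinase. Sorting of mCherry+, BFP− integrants took place at day 7, followed by 7 days of expansion and tile-sequencing of top 10% GFP and unselected integrant populations. A functional score was derived from select versus non-select variant enrichment with wild type subtracted. Values from variants reaching 10 counts per million in non-select were set to nonsense median 0 and synonymous median 1 and averaged over biological replicates.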

AIRE transcriptional activation functional score of substitutions, site by site:
T480: I 0.515 ± 0.16; K 0.954 ± 0.12; L 1 ± 0.23; N 0.784 ± 0.37; P 1.05 ± 0.32; Q 0.203 ± 0.14; R 0.837 ± 0.35; S 0.786 ± 0.59; V 1.45 ± 0.081; W 1.13 ± 0.096; Y 0.806 ± 0.041
P481: A 0.586 ± 0.34; C 0.688 ± 0.32; D 1.21 ± 0.15; E 0.44 ± 0.17; F 1.16 ± 0.26; G 0.747 ± 0.45; H 1.14 ± 0.073; I 0.238 ± 0.19; K 1.02 ± 0.054; L 0.8 ± 0.19; M 1.29 ± 0.04; N 0.00715 ± 0.27; Q 0.501 ± 0.69; R 0.956 ± 0.17; S 0.91 ± 0.43; T 0.704 ± 0.14; V 1.38 ± 0.086; W 1.39 ± 0.17; Y 1.37 ± 0.058
A482: D 1.42 ± 0.057; E 1.28 ± 0.092; F -0.132 ± 0.24; G 1.31 ± 0.59; I 1.32 ± 0.4; K 1.11 ± 0.17; L 1.44 ± 0.068; N 1.2 ± 0.25; P 1.92 ± 0.39; Q 0.773 ± 0.13; R 0.557 ± 0.26; S 1.34 ± 0.11; T 0.312 ± 0.16; V 1.23 ± 0.32; Y 1.42 ± 0.1
P483: A 0.722 ± 0.33; C 1.44 ± 0.08; F 1.33 ± 0.075; G 1.89 ± 0.095; H 1.13 ± 0.088; I 1.6 ± 0.16; K 0.675 ± 0.19; L 0.603 ± 0.34; M 1.36 ± 0.045; N 0.937 ± 0.11; Q 0.926 ± 0.086; R 1.03 ± 0.24; S 0.811 ± 0.27; T 1.46 ± 0.12; V 1.03 ± 0.074
V484: A 0.726 ± 0.16; C 0.29 ± 0.025; D 0.164 ± 0.18; E 0.615 ± 0.12; F 0.8 ± 0.35; G 1.18 ± 0.29; I 1.45 ± 0.18; L 0.509 ± 0.47; Q 1.72 ± 0.046; R 0.893 ± 0.069; S 0.906 ± 0.29; T 1.04 ± 0.26; W 1.18 ± 0.11; Y 0.975 ± 0.11
E485: A 0.466 ± 0.38; C 1.24 ± 0.047; D 0.981 ± 0.16; F 1.1 ± 0.035; G 1.05 ± 0.11; H 0.537 ± 0.11; I 1.1 ± 0.23; K 0.777 ± 0.1; L 1.11 ± 0.13; M -0.286 ± 0.13; N 0.645 ± 0.4; P 1.25 ± 0.21; Q 0.397 ± 0.44; R 0.652 ± 0.17; S 0.955 ± 0.21; T 1.02 ± 0.18; V 0.951 ± 0.26; W 1.08 ± 0.049; Y 0.948 ± 0.18
G486: A 0.707 ± 0.48; C 0.625 ± 0.26; D 0.692 ± 0.16; E 0.566 ± 0.18; F 1.46 ± 0.11; H 1.27 ± 0.27; I 1.37 ± 0.12; K 0.91 ± 0.17; L 1.03 ± 0.4; N 0.995 ± 0.084; P 1 ± 0.4; Q 0.85 ± 0.15; R 0.926 ± 0.16; S 1.16 ± 0.21; T 0.154 ± 0.23; V 1.45 ± 0.5; W 1.49 ± 0.017; Y 0.737 ± 0.24
V487: A 1.02 ± 0.19; C 0.67 ± 0.29; E -0.349 ± 0.43; F 0.765 ± 0.31; G 0.931 ± 0.44; H 0.858 ± 0.48; I 1.06 ± 0.14; K 0.821 ± 0.28; L 1.03 ± 0.18; M 0.568 ± 0.19; N 0.296 ± 0.28; P 1.04 ± 0.099; Q 0.492 ± 0.13; R 0.785 ± 0.2; S 0.901 ± 0.14; T 1.5 ± 0.077; W 0.552 ± 0.24; Y 1.13 ± 0.23
L488: A 1.27 ± 0.25; C 0.742 ± 0.29; D 0.449 ± 0.34; E 0.182 ± 0.21; F 1.13 ± 0.078; G 1.03 ± 0.27; H 0.298 ± 0.17; I 0.826 ± 0.27; K 1.07 ± 0.24; M 0.976 ± 0.11; N 0.961 ± 0.29; P 1.04 ± 0.17; Q 0.827 ± 0.24; R 0.722 ± 0.19; S 0.854 ± 0.22; T 1.18 ± 0.22; V 1.09 ± 0.29; W 1.32 ± 0.047; Y 1.31 ± 0.13
A489: C 1.19 ± 0.1; D 1.17 ± 0.2; E 0.655 ± 0.041; F 1.16 ± 0.26; G 0.932 ± 0.37; H 1.18 ± 0.099; I 0.859 ± 0.35; K 0.705 ± 0.14; L 1.06 ± 0.14; M 1.23 ± 0.08; P 1.01 ± 0.25; Q 0.0401 ± 0.2; R 0.51 ± 0.42; S 0.687 ± 0.46; T 1.44 ± 0.15; V 0.959 ± 0.15; W 0.893 ± 0.068; Y 1.22 ± 0.2
P490: A 0.812 ± 0.14; C 1.26 ± 0.12; D 0.28 ± 0.1; E 0.916 ± 0.086; F 0.986 ± 0.48; G 1.51 ± 0.078; H 0.603 ± 0.18; I 1.17 ± 0.38; K 1.17 ± 0.029; L 1.12 ± 0.27; M 0.144 ± 0.12; N 0.697 ± 0.4; Q 0.417 ± 0.47; R 1.07 ± 0.2; S 1.11 ± 0.2; T 1.13 ± 0.13; V 0.606 ± 0.23; W -0.0714 ± 0.41
S491: A 0.995 ± 0.14; C 1.29 ± 0.089; D 0.749 ± 0.32; E 1.06 ± 0.16; F 1.05 ± 0.048; G 0.752 ± 0.26; H 1.42 ± 0.061; I 1.1 ± 0.2; K 0.437 ± 0.24; L 0.845 ± 0.38; M 1.31 ± 0.12; N 0.925 ± 0.47; P 1.1 ± 0.45; Q 0.998 ± 0.17; R 0.586 ± 0.16; T 0.571 ± 0.31; V 0.901 ± 0.37; W 1.03 ± 0.1; Y 1.35 ± 0.032
P492: A 0.732 ± 0.5; C 0.756 ± 0.18; D -0.0101 ± 0.24; E 0.938 ± 1.1; F 1.04 ± 0.26; G 1.01 ± 0.11; H 0.521 ± 0.11; I 1.13 ± 0.2; K 0.595 ± 0.036; L 1.02 ± 0.38; M 1.76 ± 0.068; N 1.18 ± 0.092; Q 0.812 ± 0.47; R 0.779 ± 0.22; S 1.03 ± 0.19; T 1.31 ± 0.26; V 1.07 ± 0.25; W 0.687 ± 0.21; Y 0.427 ± 0.18
A493: C 1.13 ± 0.075; D 0.802 ± 0.12; E 0.985 ± 0.1; F 1.17 ± 0.11; G 1.15 ± 0.18; H 1.46 ± 0.11; I 1.04 ± 0.29; K 0.774 ± 0.22; L 1.09 ± 0.35; M 1.19 ± 0.073; N 1.04 ± 0.17; P 0.631 ± 0.49; Q 0.91 ± 0.25; R 1.15 ± 0.12; S 1.29 ± 0.14; T 0.878 ± 0.31; V 1.1 ± 0.26; W 0.996 ± 0.11; Y 1.13 ± 0.092
R494: A 0.321 ± 0.24; C 0.847 ± 0.14; E 0.493 ± 0.15; F 0.918 ± 0.15; G 0.344 ± 0.28; H 1.7 ± 0.12; I 0.785 ± 0.11; K 0.735 ± 0.1; L 0.489 ± 0.26; M 0.56 ± 0.088; P 0.439 ± 0.34; Q 0.696 ± 0.14; S 0.361 ± 0.17; T 0.134 ± 0.14; V 1.27 ± 0.043; W 1.41 ± 0.26; Y 0.846 ± 0.36
L495: A 1.42 ± 0.052; C 0.97 ± 0.42; D 1.68 ± 0.12; E 1 ± 0.11; F 1.18 ± 0.16; G 1.05 ± 0.35; H 1.23 ± 0.049; I 1.22 ± 0.088; K 0.745 ± 0.16; M 0.186 ± 0.34; P 0.262 ± 0.12; Q 0.974 ± 0.1; R 0.848 ± 0.23; S 0.995 ± 0.25; T 0.948 ± 0.16; V 1.07 ± 0.22; Y 1.35 ± 0.12
A496: C 1.01 ± 0.14; D 0.267 ± 0.14; E 0.99 ± 0.055; F 1.07 ± 0.25; G 0.999 ± 0.12; H 1.29 ± 0.15; I 1.04 ± 0.29; K 0.412 ± 0.094; L 1.15 ± 0.18; M 1.5 ± 0.068; N 0.726 ± 0.039; P 0.91 ± 0.15; Q 1.04 ± 0.065; R 0.864 ± 0.25; S 1.02 ± 0.23; T 0.81 ± 0.34; V 0.988 ± 0.23; W 1.64 ± 0.071; Y 1.07 ± 0.38
P497: A 1.16 ± 0.32; C 1.28 ± 0.1; D 0.292 ± 0.16; E 0.495 ± 0.076; F 1.03 ± 0.11; G 1.29 ± 0.38; H 0.871 ± 0.17; I 1.13 ± 0.2; K 0.828 ± 0.14; L 1.34 ± 0.23; M 1.19 ± 0.15; N 1.05 ± 0.14; Q 1.02 ± 0.092; R 0.646 ± 0.21; S 0.852 ± 0.26; T 1.09 ± 0.23; V 1.19 ± 0.32; W 0.669 ± 0.11; Y 1.1 ± 0.21
G498: A 1.09 ± 0.12; C 1.23 ± 0.42; D 0.318 ± 0.12; E 1.1 ± 0.1; H 1.42 ± 0.036; I 0.895 ± 0.12; K 0.572 ± 0.066; L 1.11 ± 0.17; M 1.24 ± 0.071; N 0.869 ± 0.32; Q 0.969 ± 0.11; R 0.839 ± 0.17; S 0.556 ± 0.34; T 1.09 ± 0.36; V 1.36 ± 0.095; W 1.45 ± 0.051; Y 1.2 ± 0.14
P499: A 1.22 ± 0.3; C 0.764 ± 0.15; D 0.797 ± 0.37; E 0.508 ± 0.27
